{"source": "paper PMC8103780", "binders": {"B1": {"name": "T6 (ssDNA)", "DNA": "TTTTTT"}, "B2": {"name": "T10 (ssDNA)", "DNA": "TTTTTTTTTT"}, "B3": {"name": "(GT)2 (ssDNA)", "DNA": "GTGT"}}, "biological_target": "SARS-CoV-2 nucleocapsid protein (N-protein) (SARS-CoV-2, UniProt P0DTC9 1-419)", "test": "SV-AUC"}
{"binder": "B1", "values": [{"measurement": "Kd", "result": 290, "unit": "nM"}]}
{"binder": "B2", "values": [{"measurement": "Kd", "result": "< 100", "unit": "nM"}]}
{"binder": "B3", "values": [{"measurement": "Kd", "result": "> 10000", "unit": "nM"}]}
